Reference: US12331334B2

Target: human C3 FRET peptide

Activity (nM EDANS/min/µL sample), expi293 supernatant on 40 µM human C3 FRET peptide (nM EDANS/min/µL sample) | Substance
0 | WT uPA with C122S-Fc (No PP) (Fc fusion)
0.1 | WT uPA with C122S - HSA (No PP) (enzyme)
